Assay results reported in IntAct's records for PubMed 17167417.

B1: DNA replication regulator DPB11 (Saccharomyces cerevisiae), P47027 (parent)
chain: MKPFQGITFCPTAINNEILAKKISKKIIKLGGIFSKDLTRQVNVLVVGSTTNTNKFKFAVKHRFDIIFIDIQAIDDIYQLWLSGENILPDSNTATMTGSTYEMLKILYRRFSFKYLHNFNIFIGRITDTNITSIDSLVRSIKKLGCSSYNYQNFVIKDTSSHNDDDDQGQNGQISIFVTDTLLGARVNAAIEQNIPIVHFKWILDCQKRSALLPYDPYYLLPNIKDLPYDSIGSNSCDCWDKINTTFPTNIDAQSSLQRQQSSSTLTPSLPKTSSLLNKFKPKGEKIWDKAMSLQQHSKTNFSVLGQSPLSINNKQEDLSDNSTLIFKNCAFIIHHIFPGNHRSILTKIVVQNGGKIETSYLSGIYDHSYYIIPSNKALDSFNDLPEIIDDNDGIVTEFFIERCLYYQKLLHPIDLWSKPFLSTIEFQVSSSSKLLHHEFSSSPFLNVTITGFSGVELLHLTKVLNLLKPMGINYVEYLNKSTDILLINLAALPSIPKTHPLWSNEFSDLFTQFCINNNNDDPGDNNRKDFQNNSILRNSMKRKIEYIKKFHSIPVVTPAFIFKLLSAASGENNEIFLNNIKWCIICPRGHKDDFKCKIKKPYYTSISSEKKYQNNDPKIDKTILLKRNNSSLSEHSMKDTKNELLQKIRETDSGRKKRSVSSSIMDVSSERQMPDTKRIKLESLPKNFVPKQIKRTTSWGTIMSENVPTEQPTAISNPEEIPRTEEVSHTQVTYGSIQDKKRTASLEKPMRRQTRNQTKELDS
partner: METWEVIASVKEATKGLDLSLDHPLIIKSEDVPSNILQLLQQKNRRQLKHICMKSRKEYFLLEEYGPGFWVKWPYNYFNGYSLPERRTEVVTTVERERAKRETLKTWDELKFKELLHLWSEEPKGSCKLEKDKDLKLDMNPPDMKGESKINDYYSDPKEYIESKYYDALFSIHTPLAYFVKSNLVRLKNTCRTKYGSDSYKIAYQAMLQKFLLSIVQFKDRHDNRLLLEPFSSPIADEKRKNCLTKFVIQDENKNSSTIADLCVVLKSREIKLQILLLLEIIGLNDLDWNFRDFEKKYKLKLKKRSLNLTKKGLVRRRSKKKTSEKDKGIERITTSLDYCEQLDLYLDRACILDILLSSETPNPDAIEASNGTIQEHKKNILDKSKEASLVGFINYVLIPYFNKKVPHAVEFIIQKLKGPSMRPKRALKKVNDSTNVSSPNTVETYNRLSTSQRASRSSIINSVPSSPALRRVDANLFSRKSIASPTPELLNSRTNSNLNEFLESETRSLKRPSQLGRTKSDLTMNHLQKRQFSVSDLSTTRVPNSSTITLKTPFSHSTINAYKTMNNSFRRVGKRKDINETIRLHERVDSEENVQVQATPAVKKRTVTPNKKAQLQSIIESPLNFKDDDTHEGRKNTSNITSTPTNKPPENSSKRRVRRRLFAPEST

Variants of: B1
Conditions: with sld3_yeast SLD3, P53135

| effect of a mutation on the interaction | Variant |
| --- | --- |
| disrupting interaction strength | K55D;F56P |
